Assay results as given in patent US11478551B2, “Long-acting adrenomedullin derivative” (University of Miyazaki, priority 2015, dated 2022).
Marks after values point to notes of the source that are not given here. Values belong to the compound of their own block, whether it stands above or below them.

What was measured:
Wistar rat = experiment: Blood pressure-lowering effect, single intravenous dose in rat under anesthesia; assay type: in vivo; conditions: 1 nmol/kg, single dose into the vein
Description: Each compound prepared in experiments I-1 and II-1 or full-length AM was administered in a single dose of 1 nmol/kg into the vein of each rat under anesthesia, and change in the blood pressure of the rat was observed. Each 11 to 14-week-old male Wistar rat was anesthetized by the inhalation of isoflurane. After tracheotomy, inhalational anesthesia was controlled at an isoflurane concentration of 1.5 to 2.5% and a flow rate of 0.6 to 0.8 L/min. The right jugular vein was isolated from the rat, and a catheter tube corresponding to 26 G was inserted thereto. Next, the left carotid artery was isolated from the rat thus treated, and a catheter tube corresponding to 23 G was inserted thereto. From the catheter tube of the right jugular vein, a physiological saline-heparin solution (physiological saline: 100 mL; heparin: 1000 units) was infused at 2.4 mL/hr. […] The catheter inserted in the carotid artery was connected to a pressure transducer. […] In the diagram, the ordinate depicts a difference obtained by subtracting the average blood pressure before the administration of each drug from the average blood pressure at the time of the administration of each drug.

[1] = Measurement over time of AM concentration in plasma after subcutaneous administration (RIA); assay type: in vivo; conditions: rat
Description: 1 day, 7 days and 10 days after the start of the administration, 50 mg of pentobarbital was intraperitoneally administered, and 300 μL of blood was collected each time from the tail vain under anesthesia. Immediately, 300 μg of EDTA-2Na and […] of aprotinin were added to the obtained blood sample, and the mixture was centrifuged under conditions involving 10 minutes and 3000 rpm to obtain plasma. The AM concentration in the plasma of each sample was measured by radioimmunoassay (RIA) (Kitamura K, Ichiki Y, Tanaka M et al., Immunoreactive adrenomedullin in human plasma. FEBS Lett., vol. 341, p. 288-90, 1994).
The compound (37) prepared in experiment III-1 was subcutaneously administered in a single dose of 30 nmol/kg to each rat, and time-dependent change in the concentration in blood of the adrenomedullin derivative was observed. The compound (37) dissolved in physiological saline was subcutaneously administered to each 7- to 8-week-old male Wistar rat (approximately 250 g). 1 day, 2 days, 4 days, 7 days and 9 days after the start of the administration, 50 mg of pentobarbital was intraperitoneally administered, and 300 μL of blood was collected each time from the tail vain under anesthesia. Immediately, 300 μg of EDTA-2Na and […] of aprotinin were added to the obtained blood sample, and the mixture was centrifuged under conditions involving 10 minutes and 3000 rpm to obtain plasma. The AM concentration in the plasma of each sample was measured by RIA.

[2] = test system: spontaneously hypertensive rat (SHR); experiment: Effect of suppressing increase in blood pressure in spontaneously hypertensive rat (SHR)-(2); assay type: in vivo; conditions: 30 nmol/kg subcutaneous single dose, 4 days and 9 days after administration
Description: The compound (37) prepared in experiment III-1 was subcutaneously administered in a single dose of 30 nmol/kg to each SHR, and the blood pressure increase-suppressing effect of the adrenomedullin derivative was observed. The compound (37) was administered in a form dissolved in physiological saline to each 8-week-old male SHR (approximately 200 g). […] of physiological saline was subcutaneously administered in a single dose to each male SHR (approximately 200 g) in the same condition as above in a control group. The blood pressure was measured over time (1 day before and 4 days and 9 days after the administration of the compound (37) or physiological saline). The values of change in the blood pressure obtained 4 days and 9 days after the administration of the compound (37) or physiological saline with respect to the average systolic blood pressure on the day before the administration are shown in FIG. 10.

AM receptor = biological target: T1, AM receptor (Homo sapiens, UniProt O60895+Q16602); experiment: Intracellular cAMP concentration-increasing effect in HEK293 cell line caused to express an AM receptor; assay type: cell-based; conditions: 10^−8 mol/L, 15 minutes, 0.5 mM IBMX; percentage with respect to h.AM (1-52)-Gly;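 note: cAMP inside confluent receptor-expressing cells quantified by ELISA after 15 min exposure to each peptide at 10^−8 mol/L alongside 0.5 mM IBMX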
T1 construct: expressed in transfected cells; host or cells: HEK293 cell line
T1 sequence (Q16602 23-461): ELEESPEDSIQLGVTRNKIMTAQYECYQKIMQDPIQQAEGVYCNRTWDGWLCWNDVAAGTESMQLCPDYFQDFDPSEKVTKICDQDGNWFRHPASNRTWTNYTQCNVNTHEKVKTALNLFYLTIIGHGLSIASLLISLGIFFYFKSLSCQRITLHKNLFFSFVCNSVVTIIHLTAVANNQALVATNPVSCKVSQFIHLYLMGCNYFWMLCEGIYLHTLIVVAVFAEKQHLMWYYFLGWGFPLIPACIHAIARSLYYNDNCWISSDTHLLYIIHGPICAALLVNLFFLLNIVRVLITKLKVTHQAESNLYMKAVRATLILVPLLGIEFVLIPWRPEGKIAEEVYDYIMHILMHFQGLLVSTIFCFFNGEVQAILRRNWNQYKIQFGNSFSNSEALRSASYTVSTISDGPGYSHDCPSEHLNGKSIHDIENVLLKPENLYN
T1 sequence (O60895 43-175): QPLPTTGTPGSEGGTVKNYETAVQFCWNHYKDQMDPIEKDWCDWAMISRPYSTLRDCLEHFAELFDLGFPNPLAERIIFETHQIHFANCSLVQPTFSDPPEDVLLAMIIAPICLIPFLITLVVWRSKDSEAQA
Description: 10^−8 mol/L of each compound, h.AM (1-52), h.AM (6-52), h.AM (11-52), h.AM (16-52), or h.AM (1-52)-Gly was added to confluent HEK293 cells (cell count: 5×10^4) in the presence of 0.5 mM IBMX and incubated for 15 minutes. Then, the intracellular cAMP concentration in the HEK293 cells of each test zone was measured using an ELISA kit for cAMP measurement (GE Healthcare Japan Corp., #RPN2251).

[3] = 10 nmol/kg subcutaneous single dose, 7 days later

Compound: CH3O-PEG (20k)-(CH2)5—CO-^αNH-(h.AM (1-52)) [Compound (2), reference compound]
rapidly decreased blood pressure immediately after the administration (Wistar rat): not observed

Compound: GL-2-branched CH3O-PEG (40k)-CO-^αNH-(h.AM (1-52)) [Compound (27)]
level at time molar at 24 h ([1]; 10 nmol/kg subcutaneous single dose, 1 day later): ≥ 3600 pM
level at time molar at 24 h [1, 3]: ≥ 120 pM

Compound: CH3O-PEG (20k)-(CH2)2—CH2-^αNH-(h.AM (1-52)) [Compound (4)]
decrease in the blood pressure immediately after the administration, as compared to compound (2) (Wistar rat): further suppressed
rapidly decreased blood pressure immediately after the administration (Wistar rat): not observed

level at time molar at 24 h [1, 3]: 0 pM
level at time molar at 24 h ([1]; 10 nmol/kg subcutaneous single dose, 10 days later): 0 pM
level at time molar at 24 h ([1]; male, Wistar, plasma, sc, 10 nmol/kg subcutaneous single dose, 1 day later): 6.7 pM
Compound: CC[C@H](C)[C@H](NC(=O)[C@H](CCC(N)=O)NC(=O)[C@H](Cc1c[nH]cn1)NC(=O)[C@H](C)NC(=O)[C@H](CC(C)C)NC(=O)[C@H](CCCCN)NC(=O)[C@H](CCC(N)=O)NC(=O)[C@@H](NC(=O)[C@@H](NC(=O)[C@@H]1CSSC[C@H](NC(=O)CNC(=O)[C@H](Cc2ccccc2)NC(=O)[C@H](CO)NC(=O)[C@H](CCCNC(=N)N)NC(=O)[C@H](CC(C)C)NC(=O)CNC(=O)[C@H](CCC(N)=O)NC(=O)[C@H](Cc2ccccc2)NC(=O)[C@H](CC(N)=O)NC(=O)[C@H](CC(N)=O)NC(=O)[C@H](CCSC)NC(=O)[C@H](CO)NC(=O)[C@H](CCC(N)=O)NC(=O)[C@H](CCCNC(=N)N)NC(=O)[C@@H](N)Cc2ccc(O)cc2)C(=O)N[C@@H](CCCNC(=N)N)C(=O)N[C@@H](Cc2ccccc2)C(=O)NCC(=O)N[C@@H]([C@@H](C)O)C(=O)N1)[C@@H](C)O)C(C)C)C(=O)N[C@@H](Cc1ccc(O)cc1)C(=O)N[C@@H](CCC(N)=O)C(=O)N[C@@H](Cc1ccccc1)C(=O)N[C@H](C(=O)N[C@@H](CC(=O)O)C(=O)N[C@@H](CCCCN)C(=O)N[C@@H](CC(=O)O)C(=O)N[C@@H](CCCCN)C(=O)N[C@@H](CC(=O)O)C(=O)N[C@@H](CC(N)=O)C(=O)N[C@H](C(=O)N[C@@H](C)C(=O)N1CCC[C@H]1C(=O)N[C@@H](CCCNC(=N)N)C(=O)N[C@@H](CO)C(=O)N[C@@H](CCCCN)C(=O)N[C@H](C(=O)N[C@@H](CO)C(=O)N1CCC[C@H]1C(=O)N[C@@H](CCC(N)=O)C(=O)NCC(=O)N[C@@H](Cc1ccc(O)cc1)C(N)=O)[C@@H](C)CC)C(C)C)[C@@H](C)O [h.AM (1-52), reference compound]
rapidly decreased blood pressure immediately after the administration (Wistar rat): rapidly decreased blood pressure was observed

Intracellular cAMP concentration-increasing effect (%) (AM receptor): 91****^) %
Compound: GL-2-branched CH3O-PEG (60k)-CH2-^αNH-(h.AM (1-52)-Gly) [Compound (37)]
increase in the blood pressure compared to the control group [2]: suppressed
level at time molar at 24 h ([1]; 30 nmol/kg subcutaneous single dose, 1 day later): ≥ 34000 pM
level at time molar at 24 h ([1]; 30 nmol/kg subcutaneous single dose, 7 days later): ≥ 1600 pM
level at time molar at 24 h ([1]; 30 nmol/kg subcutaneous single dose, 9 days later): ≥ 110 pM
